Here are results for 3 substances from patent US20200109202A1.

For experiment [1], the target named is human CD16A-158F ECD fused to monomeric Fc (human) (UniProt P08637). Nature of the experiment: SPR, Biacore T200, receptor captured, 1:1 model.
For experiment [2], the target named is human CD16A-158V ECD fused to monomeric Fc (human) (UniProt P08637). Nature of the experiment: SPR, Biacore T200, receptor captured, 1:1 model. On the technique in general: In SPR one partner is held on a chip, and binding of the other changes the refractive index at the surface.
Chain of human CD16A-158V ECD fused to monomeric Fc (human) (P08637 17-208 F176V): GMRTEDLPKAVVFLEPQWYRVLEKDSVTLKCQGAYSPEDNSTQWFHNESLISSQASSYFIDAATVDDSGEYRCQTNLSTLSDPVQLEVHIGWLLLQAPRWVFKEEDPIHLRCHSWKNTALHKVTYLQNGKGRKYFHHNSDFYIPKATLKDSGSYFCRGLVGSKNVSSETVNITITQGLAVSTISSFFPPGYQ

Chain of human CD16A-158F ECD fused to monomeric Fc (human) (P08637 17-208): as the sequence (P08637 17-208 F176V) above, with V160F counted along it

As a reminder, the Kd is the concentration at which binding is half-saturated. A high value points to weaker binding. A word on the koff: it is the first-order rate constant of dissociation. A higher koff goes with fast dissociation. For orientation: kon means the second-order rate constant of association. As for “human IgG1 (IgG1 Fc wildtype) (antibody)”, in experiment [1], the Kd is 2720 nM, the koff stood at 0.0675 s⁻¹ and the kon came out at 24800 M⁻¹ s⁻¹. Moreover, in experiment [2], the Kd worked out at 424 nM, the koff amounted to 0.00995 s⁻¹ and the kon was determined as 23500 M⁻¹ s⁻¹.
In experiment [2], “human IgG1 Fc-enhanced (S239D/I332E) (antibody)” registered a Kd of 13.5 nM, a koff of 0.00639 s⁻¹ and a kon of 474000 M⁻¹ s⁻¹.
In experiment [1], “human IgG1 Fc-silenced (L234F/L235E/D265A) (antibody)” gave a Kd of 34700 nM, a koff of 0.71 s⁻¹ and a kon of 20400 M⁻¹ s⁻¹.
